Starred links: 1 amine or outer side, 2 acyl side, 3 side chain; linkers in the order of their positions; H or OH if unused. Non-standard residues stand in square brackets, D forms with d. *: point of attachment. X6 = ((1S)-1-carboxy-2-hydroxyethyl)carbamoyl, O=C(O)[C@H](CO)NC(=O)*; Phe(2,6-Me2) = Cc1cccc(C)c1C[C@H](N)C(=O)O; (carboxymethyl)carbamoyl = O=C(O)CNC(=O)*; Imidazole4carbonyl = O=C(c1cnc[nH]1)*; morpholinocarbonyl = O=C(N1CCOCC1)*; tBuAla = CC(C)(C)C[C@H](N)C(=O)O; 4Pal = N[C@@H](Cc1ccncc1)C(=O)O; dHyp = O=C(O)[C@H]1C[C@H](O)CN1; Cha = N[C@@H](CC1CCCCC1)C(=O)O; Suc = O=C(CCC(=O)[*:2])[*:1]; dIva = CC[C@@](C)(N)C(=O)O; Iva = CC[C@](C)(N)C(=O)O; Nle = CCCC[C@H](N)C(=O)O; Abu = CC[C@H](N)C(=O)O; Aib = CC(C)(N)C(=O)O
What was measured:
[1] = molecular target: T1, human Y2 receptor (Homo sapiens, UniProt P49146); test: Receptor Binding Assay (RBA) for Human Y2, [125I]-PYY displacement on hY2R/CHO membrane fraction; conditions: IC50 of test compound/IC50 of PYY(3-36) (PYY(3-36) taken as 1)
T1 construct: expressed in transfected cells; membrane fraction
T1 sequence (P49146 1-381): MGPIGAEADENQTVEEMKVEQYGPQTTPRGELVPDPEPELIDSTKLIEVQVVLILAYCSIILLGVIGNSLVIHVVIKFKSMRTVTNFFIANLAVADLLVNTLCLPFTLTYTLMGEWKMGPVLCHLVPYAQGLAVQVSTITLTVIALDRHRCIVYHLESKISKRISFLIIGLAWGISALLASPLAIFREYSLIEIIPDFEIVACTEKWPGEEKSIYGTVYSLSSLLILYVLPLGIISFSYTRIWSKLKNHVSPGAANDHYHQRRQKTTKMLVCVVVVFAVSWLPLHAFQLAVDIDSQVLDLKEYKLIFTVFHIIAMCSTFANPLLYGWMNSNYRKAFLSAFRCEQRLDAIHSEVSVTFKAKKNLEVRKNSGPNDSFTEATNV
Method in brief: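 hY2R stably expressed in CHO/dhfr− cells; membrane fraction prepared from cells disrupted in 10 mM NaHCO3, 5 mM EDTA buffer with protease inhibitors. Binding read as displacement of [125I]-PYY.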

[2] = molecular target: T1, human Y2 receptor; test: Human Y2 Receptor G Protein Binding Assay (GBA), [35S]GTPγS; type: biochemical; conditions: EC50 of test compound/EC50 of PYY(3-36) (PYY3-36 taken as 1), hY2R/CHO membrane fraction
Method in brief: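 Agonism measured as [35S]GTPγS binding, read by GF/C filtration and scintillation counting after 120 min at room temperature, using human Y2 membranes at 1 μg protein/mL in pH 7.4 Tris/MgCl2/NaCl/GDP buffer. Compound serially diluted 100 μM–1 nM; EC50 normalized to PYY(3-36) (ratio = compound/PYY).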

[3] = system: male C57EL/6J mice; test: 3-Days Continuous Subcutaneous Administration Test-1 (food intake suppressing activity); type: in vivo, mouse; conditions: 0.03 mg/kg/day, subcutaneous Alzet pump, food consumption over 3 days; relative to food intake suppression rate for PYY(3-36) (1 mg/kg/day) taken as 100%
Method in brief: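 Male […] mice, 12-13 weeks, received compound at 0.03 mg/kg/day by subcutaneous osmotic pump (50% DMSO vehicle), housed singly with free food access. Food consumed over 3 days measured; suppression expressed relative to PYY(3-36) (1 mg/kg/day) set as 100%.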

RBA IC50 Ratio [1] | GBA EC50 Ratio [2] | Substance | food intake suppression rate (%) [3] [%]
0.97 | 1.5 | Ac-[D-Hyp24, Iva25, Pya(4)26, Cha27,36, Leu(Me)28, Lys30, Aib31]-PYY(23-36) (Ac-S[dHyp][Iva][4Pal][Cha][tBuAla]NK[Aib]TRQR[Cha]-NH2; SMILES CC[C@](C)(NC(=O)[C@H]1C[C@H](O)CN1C(=O)[C@H](CO)NC(C)=O)C(=O)N[C@@H](Cc1ccncc1)C(=O)N[C@@H](CC1CCCCC1)C(=O)N[C@@H](CC(C)(C)C)C(=O)N[C@@H](CC(N)=O)C(=O)N[C@@H](CCCCN)C(=O)NC(C)(C)C(=O)N[C@H](C(=O)N[C@@H](CCCNC(=N)N)C(=O)N[C@@H](CCC(N)=O)C(=O)N[C@@H](CCCNC(=N)N)C(=O)N[C@@H](CC1CCCCC1)C(N)=O)[C@@H](C)O) [compound No. 335] | 27
1.7 | 1.2 | 4-Imidazolecarbonyl-[D-Pro24, Nle25, Pya(4)26, Cha27,36, Aib28,31, Lys30]-PYY(23-36) (Imidazole4carbonyl-S[dP][Nle][4Pal][Cha][Aib]NK[Aib]TRQR[Cha]-NH2; SMILES CCCC[C@H](NC(=O)[C@H]1CCCN1C(=O)[C@H](CO)NC(=O)c1cnc[nH]1)C(=O)N[C@@H](Cc1ccncc1)C(=O)N[C@@H](CC1CCCCC1)C(=O)NC(C)(C)C(=O)N[C@@H](CC(N)=O)C(=O)N[C@@H](CCCCN)C(=O)NC(C)(C)C(=O)N[C@H](C(=O)N[C@@H](CCCNC(=N)N)C(=O)N[C@@H](CCC(N)=O)C(=O)N[C@@H](CCCNC(=N)N)C(=O)N[C@@H](CC1CCCCC1)C(N)=O)[C@@H](C)O) [compound No. 302] | 22
0.89 | 0.57 | Morpholinocarbonyl-[D-Pro24, Pya(4)26, Cha27,36, Aib28,31, Lys30]-PYY(23-36) (morpholinocarbonyl-S[dP]R[4Pal][Cha][Aib]NK[Aib]TRQR[Cha]-NH2; SMILES C[C@@H](O)[C@H](NC(=O)C(C)(C)NC(=O)[C@H](CCCCN)NC(=O)[C@H](CC(N)=O)NC(=O)C(C)(C)NC(=O)[C@H](CC1CCCCC1)NC(=O)[C@H](Cc1ccncc1)NC(=O)[C@H](CCCNC(=N)N)NC(=O)[C@H]1CCCN1C(=O)[C@H](CO)NC(=O)N1CCOCC1)C(=O)N[C@@H](CCCNC(=N)N)C(=O)N[C@@H](CCC(N)=O)C(=O)N[C@@H](CCCNC(=N)N)C(=O)N[C@@H](CC1CCCCC1)C(N)=O) [compound No. 268] | 16
0.81 | 1.1 | Ac-[Aib24,28,31, Pya(4)26, Cha27,36, Lys30]-PYY(23-36) (Ac-S[Aib]R[4Pal][Cha][Aib]NK[Aib]TRQR[Cha]-NH2; SMILES CC(=O)N[C@@H](CO)C(=O)NC(C)(C)C(=O)N[C@@H](CCCNC(=N)N)C(=O)N[C@@H](Cc1ccncc1)C(=O)N[C@@H](CC1CCCCC1)C(=O)NC(C)(C)C(=O)N[C@@H](CC(N)=O)C(=O)N[C@@H](CCCCN)C(=O)NC(C)(C)C(=O)N[C@H](C(=O)N[C@@H](CCCNC(=N)N)C(=O)N[C@@H](CCC(N)=O)C(=O)N[C@@H](CCCNC(=N)N)C(=O)N[C@@H](CC1CCCCC1)C(N)=O)[C@@H](C)O) [compound No. 240] | 36
2 | 1.9 | 3-Carboxypropionyl-[Gln23, D-Pro24, Pya(4)26, Cha27,36, Aib28,31, Lys30]-PYY(23-36) (Suc-Q[dP]R[4Pal][Cha][Aib]NK[Aib]TRQR[Cha]-NH2; SMILES C[C@@H](O)[C@H](NC(=O)C(C)(C)NC(=O)[C@H](CCCCN)NC(=O)[C@H](CC(N)=O)NC(=O)C(C)(C)NC(=O)[C@H](CC1CCCCC1)NC(=O)[C@H](Cc1ccncc1)NC(=O)[C@H](CCCNC(=N)N)NC(=O)[C@H]1CCCN1C(=O)[C@H](CCC(N)=O)NC(=O)CCC(=O)O)C(=O)N[C@@H](CCCNC(=N)N)C(=O)N[C@@H](CCC(N)=O)C(=O)N[C@@H](CCCNC(=N)N)C(=O)N[C@@H](CC1CCCCC1)C(N)=O) [compound No. 218] | 27
0.55 | 1.6 | Ac-[D-Pro24, Pya(4)26, Cha27,36, Aib28, Lys30, D-Iva31]-PYY(23-36) (Ac-S[dP]R[4Pal][Cha][Aib]NK[dIva]TRQR[Cha]-NH2; SMILES CC[C@@](C)(NC(=O)[C@H](CCCCN)NC(=O)[C@H](CC(N)=O)NC(=O)C(C)(C)NC(=O)[C@H](CC1CCCCC1)NC(=O)[C@H](Cc1ccncc1)NC(=O)[C@H](CCCNC(=N)N)NC(=O)[C@H]1CCCN1C(=O)[C@H](CO)NC(C)=O)C(=O)N[C@H](C(=O)N[C@@H](CCCNC(=N)N)C(=O)N[C@@H](CCC(N)=O)C(=O)N[C@@H](CCCNC(=N)N)C(=O)N[C@@H](CC1CCCCC1)C(N)=O)[C@@H](C)O) [compound No. 232] | 34
0.52 | 0.59 | Ac-[D-Pro24, Pya(4)26, Cha27, Aib28,31, Lys30, Phe(2,6-Me2)36]-PYY(23-36) (Ac-S[dP]R[4Pal][Cha][Aib]NK[Aib]TRQR[Phe(2,6-Me2)]-NH2; SMILES CC(=O)N[C@@H](CO)C(=O)N1CCC[C@@H]1C(=O)N[C@@H](CCCNC(=N)N)C(=O)N[C@@H](Cc1ccncc1)C(=O)N[C@@H](CC1CCCCC1)C(=O)NC(C)(C)C(=O)N[C@@H](CC(N)=O)C(=O)N[C@@H](CCCCN)C(=O)NC(C)(C)C(=O)N[C@H](C(=O)N[C@@H](CCCNC(=N)N)C(=O)N[C@@H](CCC(N)=O)C(=O)N[C@@H](CCCNC(=N)N)C(=O)N[C@@H](Cc1c(C)cccc1C)C(N)=O)[C@@H](C)O) [compound No. 329] | 51
2.3 | 0.98 | Ac-[D-Pro24, Abu26, Cha27,36, Aib28,31, Lys30]-PYY(23-36) (Ac-S[dP]R[Abu][Cha][Aib]NK[Aib]TRQR[Cha]-NH2; SMILES CC[C@H](NC(=O)[C@H](CCCNC(=N)N)NC(=O)[C@H]1CCCN1C(=O)[C@H](CO)NC(C)=O)C(=O)N[C@@H](CC1CCCCC1)C(=O)NC(C)(C)C(=O)N[C@@H](CC(N)=O)C(=O)N[C@@H](CCCCN)C(=O)NC(C)(C)C(=O)N[C@H](C(=O)N[C@@H](CCCNC(=N)N)C(=O)N[C@@H](CCC(N)=O)C(=O)N[C@@H](CCCNC(=N)N)C(=O)N[C@@H](CC1CCCCC1)C(N)=O)[C@@H](C)O) [compound No. 320] | 18
0.52 | 1.3 | [(1S)-1-carboxy-2-hydroxyethyl]carbamoyl-[D-Pro24, Pya(4)26, Cha27,36, Aib28,31, Lys30]-PYY(23-36) (X6-S[dP]R[4Pal][Cha][Aib]NK[Aib]TRQR[Cha]-NH2; SMILES C[C@@H](O)[C@H](NC(=O)C(C)(C)NC(=O)[C@H](CCCCN)NC(=O)[C@H](CC(N)=O)NC(=O)C(C)(C)NC(=O)[C@H](CC1CCCCC1)NC(=O)[C@H](Cc1ccncc1)NC(=O)[C@H](CCCNC(=N)N)NC(=O)[C@H]1CCCN1C(=O)[C@H](CO)NC(=O)N[C@@H](CO)C(=O)O)C(=O)N[C@@H](CCCNC(=N)N)C(=O)N[C@@H](CCC(N)=O)C(=O)N[C@@H](CCCNC(=N)N)C(=O)N[C@@H](CC1CCCCC1)C(N)=O) [compound No. 288] | 28

Substance | RBA IC50 Ratio [1] | GBA EC50 Ratio [2] | food intake suppression rate (%) [3] [%]
(Carboxymethyl)carbamoyl-[D-Pro24, Pya(4)26, Cha27,36, Aib28,31, Lys30]-PYY(23-36) ({(carboxymethyl)carbamoyl}-S[dP]R[4Pal][Cha][Aib]NK[Aib]TRQR[Cha]-NH2; ends and bridges not checked) [compound No. 287] | 1.2 | 1.2 | 42

Source: patent publication US9260500B2, “Peptide and use thereof” (Takeda Pharmaceutical Company Limited, priority 2009, dated 2016)
